How the values were obtained:
[1] = target: SARS-COV-2 RBD (SARS-COV-2, UniProt P0DTC2 319-539); assay: ELISA, RBD coated on plate
[2] = target: T1, SARS-CoV-2 receptor-binding domain (RBD), S protein residues 319-539 (SARS-CoV-2, UniProt P0DTC2 319-539); assay: ELISA on coated RBD
T1 construct: also called WT RBD; SARS-COV-2 RBD

[3] = target: SARS-CoV-2 receptor-binding domain (WT RBD; S protein residues 319-539) (SARS-CoV-2, UniProt P0DTC2 319-539); assay: BLI (Octet Red), IgG on protein A biosensor, WT RBD in solution, 1:1 fit

B1: C572 (antibody, V domains shown)
VH: EVQLVESGGGLIKPGRSLRLSCTASGFTFGDYAMTWFRQAPGKGLEWVGFIRSKAYGGTTGYAASVKYRFTISRDDSKSIAYLQMDSLKTEDTAVYYCTRWDGWSQHDYWGQGTLVTVSS
VL: DIVMTQSPLSLSVTPGEPASISCRSSQSLLHSNGNNYFDWYLQKPGQSPQLLIYLASNRASGVPDRFSGSGSGTDFTLKISRVEAEDVGVYYCMQVLQIPYTFGQGTKLEI
[1]
  EC50: 2.9 ng/mL

B2: C887 (antibody, V domains shown)
VH: EVQLVESGGDLVQPGGSLRLSCAASGFTFTTYSMSWVRQAPGKGLEWISYINSGSANIHYADSVKGRFTVSRDNAKNSLYLQMNSLRDEDTAVYYCARGDCLSSSCYSLDYWGQGALVTVSS
VL: DIQMTQSPSSLSASVGDRVTITCRASQSITSYLSWYLQKPGEAPKLLIYAASILQSGVPSRFGGNGSGTDFTLTISSLQPEDFATFYCQQTYRSPLTFGGGTKVEIK
[2]
  EC50: 2.53 ng/mL

B3: C580 (antibody, V domains shown)
VH: EVQLVQSGAEVKKAGESLKISCNSSGYSFTNYWIAWVRQVPGKGLEWMGIIYLGDSDTRYSPSFQGRVTISADKSISAAYLHWSSLKASDTAIYYCARGGPPGGVKLELTDFWGQGTLVTVSS
VL: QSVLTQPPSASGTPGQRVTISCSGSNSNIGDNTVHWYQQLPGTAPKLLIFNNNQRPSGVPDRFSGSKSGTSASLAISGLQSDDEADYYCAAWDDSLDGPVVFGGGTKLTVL
[1]
  EC50: 1.81 ng/mL

B4: C566 (antibody, V domains shown)
VH: QVQLQESGPGLVKSSQTLSLNCSVFGASISSGGYYWTWIRQHPGKGLEWIGYIHYRGTYYNPSLKSRVTMSVDTSKNQFSLKVRSVSAADTAIYYCARAIVVVTLNWFDLWGQGTLVTVSS
VL: NFMLTQPHSVSESPGKTVTISCSGSGGSIASNYVQWYQQRPGSAPTAVIYEDNQRPSGVPDRFSGSIDSSSNSASLTISGLKTEDEADYYCQSYDTSNPVIFGGGTKLTV
[1]
  EC50: 5.88 ng/mL

B5: C101 (antibody, V domains shown)
VH: QVQLVESGGGLIQPGGSLRLSCAASGFIVSSNYMSWVRQAPGKGLEWVSVIYSGGSTFYTDSVKGRFTISRDNSKNTLYLQMNSLRAEDTAVYYCVRDYGDFYFDYWGQGTLVTVSS
VL: EIVLTQSPGTLSLSPGERATLSCRASQSVSSSYLAWYQQKPGQAPRLLIYGASSRATGIPDRFSGGGSETDFTLTISRLEPEDCAVYYCQQYGSSPRTFGQGTKVEIK
[1]
  EC50: 1.51 ng/mL

B6: C970 (antibody, V domains shown)
VH: QVQLQESGPGLVKPSETLSLTCTVSGDSINKYYWGWIRQPPGKGLEWIGYIYYSGTTNYNPSLKSRVTISVDTSKTQFSLKLSSVTAADTAVYYCARLLSTEWSFNWFDPWGQGTLVTVSS
VL: SYELTQPPSVSVSPGQTASITCSGDTLGDKYACWYQQKPGQSPLLVIYQNNKRPSGIPERFSGSNSGNTATLTISGTQAMDEADYYCQAWDSSTAYVFGTGTKVTVL
[2]
  EC50: 3.71 ng/mL

B7: C044 (antibody, V domains shown)
VH: EVQLVESGGGLVQPGGSLRLSCAASGFTFSSYSMNWVRQAPGKGLEWVSYISSSSSTIYYADSVKGRFTISRDNAKNSLYLQMNSLRDEDTAVYYCAREAHDGALTDYGDYLNWFDPWGQGTLVTVSS
VL: SYELTQPPSVSVAPGKTARITCGGNNIGSKSVHWYQQKPGQAPVLVIYYDSDRPSGIPERFSGSNSGNTATLTISRVEAGDEADYYCQVWDSSSDHLYWVFGGGTKLTVL
[3]
  Kd: 189 nM

B8: C891 (antibody, V domains shown)
VH: EVQLVESGGGLVKPGGSLRLSCAVSGFTFSNVWMSWVRQAPGKGLEWVGRIKSKTDGGTTDYAAPVKGRFTISRDDSKNTLYLQMNSLKTEDTAVYYCTSQLWLRGPGDYWGQGTLVTVSS
VL: NFMLTQPHSVSESPGKTVTISCTGSSGSIASNYVQWYQQRPGSAPTTVIYEDNQRPSGVPDRFSGSIDSSSNSASLTISGLKTEDEADYYCQSYDSSLNWVFGGGTKLTVL
[2]
  EC50: 1.44 ng/mL

B9: C892 (antibody, V domains shown)
VH: EVQLVESGGGLVKPGGSLKVSCTASGFTFTDAWMSWVRQAPGKGLEWVGRIKSRAYGGTTDYGAPVQGRFTISRDDSINTLYLQMNSLTAEDTAVYYCTSQLWLRGPGDYWGQGTLVTVSS
VL: NFMLTQPHSVSESPGKTVTISCTGSSGSIASNYVHWYQQRPGGAPTTVIYEDNQRPSGVPDRFSGSIDISSNSASLTISGLKTEDEGDYYCQSYDSGVNWVFGGGTKLTVL
[2]
  EC50: 2.9 ng/mL

B10: C890 (antibody, V domains shown)
VH: QVQLVQSGAEVKKPGSSVKASCKASGGTFSTYTISWVRQAPGHGLEWMGRIIPIFGTTKYAQKFQGRVTITADESTTTAYLELSSLRSEDTAVYYCTINTQWDLVPRWGQGTLVTVSS
VL: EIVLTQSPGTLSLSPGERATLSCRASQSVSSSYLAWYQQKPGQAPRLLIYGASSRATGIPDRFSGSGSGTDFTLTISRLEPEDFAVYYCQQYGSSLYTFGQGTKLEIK
[2]
  EC50: 2.2 ng/mL

B11: C889 (antibody, V domains shown)
VH: EVQLVESGGGLVQPGGSLRLSCAVSGFTVSSNYMTWVRQAPGKGLEWVSLIYSGTSAFYADSVKGRFTISRDNSKNTLYLQMSSLRVNDTAIYYCARDLRKDDGYSYGAFDYWGQGTLVTVSS
VL: QSALTQPASVSGSPGQSITISCSGTSSDVGAHNYVSWYQQYPGKAPKLMIFDVTDRPSGVSNRFSGSKSGNTASLTISGLQAEDEADYYCTSYTTNRSWVFGGGTKVTVL
[2]
  EC50: 4.25 ng/mL

B12: C902 (antibody, V domains shown)
VH: EVQLVQSGAEVKKPGESLRISCKGSGYSFHTYWIHWVRQMPGKGLEWMGKIDPSDSYTNYSPSFQGHVTFSADRSISTAYLQWSSLKASDTATYYCARLSWSPPTRTTDEKNWFDPWGQGTLVTVSS
VL: DIQLTQSPSFLAASAGDRVTITCRASQGISSYLAWYQQKPGKAPKVLIYAASTLQSGVPSRFSGSGSGTEFTLTISSLQPEDCATYYCQQFNSDPLTFGGGTKVEIK
[2]
  EC50: 3.4 ng/mL

B13: C980 (antibody, V domains shown)
VH: QVQLVQSGAEVKKPGSSVKVSCEASGGTFSSDSINWVRQAPGQGLEWMGRIIPIFGATNYAQKFQGRVTITADKSTDTVYMEVSSLTSEDTAVYYCARGGIAVGGWWFDPWGQGTLVTVSS
VL: EIVMTQSPATLSVSPGERATLSCRASESVSSKLAWYQQKPGQAPRLLIYGASTRATGISARFSGSGSGTDFTLTISSLESEDFAVYYCQQYNHWPPNTFGQGTKLEIK
[2]
  EC50: 4.07 ng/mL

B14: C570 (antibody, V domains shown)
VH: QVQLQESGPGLVKPSETLSLTCTVSGASISSYYWSWIRQPPGKGLEWIGYIYYSGSTNYNPSLKSRVTISLDTSKNQFSLQLSSVTAADTAVYYCATYYFDNSGYSYGLDVWGQGTTVTVSS
VL: DIQMTQSPSSLSASVGDRVTIACRASQSISSYLHWYQQQPGKAPKLLIYAVTNLQSGVPSRFSGSGSGTDFTLTISSLQPEDFATYYCQQSYSLPQTFGQGTKVEIK
[1]
  EC50: 0.74 ng/mL

B15: C881 (antibody, V domains shown)
VH: EVQLVESGGGLIQPGGSLRLSCAVSGVAVSTNYMSWVRQAPGQGLEWVSTIYSGDTTYYSDSVKGRFTISRDNSKNTFYLQMNSLRVPDTAVYYCARLGGVFNGFNGSFDYWGQGTLVTVS
VL: QSALTQPASVSGSPGQSITISCIGTSSDFENYNLVSWYQQHPGKAPKVMIYEDTKRPSGVSNRFSGSKSANTASLTISGLQAEDEAEYYCCSYAGASTWVFGGGTRVTVV
[2]
  EC50: 1.44 ng/mL

B16: C573 (antibody, V domains shown)
VH: QVQLQESGPGLVKPSGTLSLTCAVSGGSISTVNWWSWVRQPPGKGLEWIGEIHHSGNTNHNPSLRSRVTISVDKSKNQFSLKLRSVTAADTAVYYCARDGGRPGDAFDLWGQGTMVTVSS
VL: QSALTQPASVSGSPGQSITISCTGTSSDVGGYNYVSWYQQHPGKVPKVMIYDVSNRPSGISNRFSGSKSGNTASLTISGLQAEDEADYYCNSYRSNSTRVFGTGTKVTV
[1]
  EC50: 2.2 ng/mL

B17: C901 (antibody, V domains shown)
VH: QVQLVESGGGVVQPGRSLRIACGASGFTFSTYDMHWVRQAPVKGLEWVAVISRDGSGKFYADSVKGRFTISRDNSKKTLYLQMDSLRPEDTAMYYCARDFESRTWDPPKYYYALDVWGQGTTVTVSS
VL: DIQMTQSPSSLSASVGDRVTITCRASQSISTYLNWYQQKPGKAPSLLIYAASSLYSGVPSRFSGSGSGTDFSLTISSLQPEDFATYYCQQTYTTPTWTFGQGTKVEIK
[2]
  EC50: 2.16 ng/mL

— patent publication US20240218057A1 (ROCKEFELLER UNIVERSITY, published 2024)
